We go through one molecule from paper PMC3679363 (Molecular cell, 2013).

The assay has as its target recombinant His-Tip60α ( (human or mouse cDNA cloned), UniProt Q92993 1-513). Description: pull-down.

Chain of recombinant His-Tip60α (Q92993 whole entry): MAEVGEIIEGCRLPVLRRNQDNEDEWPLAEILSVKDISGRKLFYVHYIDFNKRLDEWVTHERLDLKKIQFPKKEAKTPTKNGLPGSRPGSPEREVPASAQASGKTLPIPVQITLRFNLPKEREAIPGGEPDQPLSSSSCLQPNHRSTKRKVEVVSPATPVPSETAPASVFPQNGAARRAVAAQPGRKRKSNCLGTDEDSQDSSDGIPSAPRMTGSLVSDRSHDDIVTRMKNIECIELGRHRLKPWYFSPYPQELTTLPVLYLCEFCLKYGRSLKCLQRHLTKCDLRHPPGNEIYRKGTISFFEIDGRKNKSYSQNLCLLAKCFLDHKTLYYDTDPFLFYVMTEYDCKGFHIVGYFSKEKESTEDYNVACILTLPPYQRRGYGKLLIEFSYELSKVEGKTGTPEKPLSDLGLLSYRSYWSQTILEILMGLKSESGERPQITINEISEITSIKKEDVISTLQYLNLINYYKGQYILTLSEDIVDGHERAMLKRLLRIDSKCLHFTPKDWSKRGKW

B1: GST-PRAK (enzyme, UniProt Q8IW41 1-473, looked up)
chain: MSEESDMDKAIKETSILEEYSINWTQKLGAGISGPVRVCVKKSTQERFALKILLDRPKARNEVRLHMMCATHPNIVQIIEVFANSVQFPHESSPRARLLIVMEMMEGGELFHRISQHRHFTEKQASQVTKQIALALRHCHLLNIAHRDLKPENLLFKDNSLDAPVKLCDFGFAKIDQGDLMTPQFTPYYVAPQVLEAQRRHQKEKSGIIPTSPTPYTYNKSCDLWSLGVIIYVMLCGYPPFYSKHHSRTIPKDMRRKIMTGSFEFPEEEWSQISEMAKDVVRKLLKVKPEERLTIEGVLDHPWLNSTEALDNVLPSAQLMMDKAVVAGIQQAHAEQLANMRIQDLKVSLKPLHSVNNPILRKRKLLGTKPKDSVYIHDHENGAEDSNVALEKLRDVIAQCILPQAGKGENEDEKLNEVMQEAWKYNRECKLLRDTLQSFSWNGRGFTDKVDRLKLAEIVKQVIEEQTTSHESQ
Regarding B1, the binding result was “binds”.
